Patent publication US20240002531A1 (ONO PHARMACEUTICAL, published 2024)
Like-named read-outs stand apart in the source and are kept apart here.

What was measured:
[1] = target: T1, P612A peptide (HER2 603-622 with P612A) (human); experiment: SPR Biacore, mAb on chip, peptide analyte, 1:1 fit
T1 peptide: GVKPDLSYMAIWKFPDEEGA

[2] = target: T2, Y610A peptide (HER2 603-622 with Y610A) (human); experiment: SPR Biacore, mAb on chip, peptide analyte, 1:1 fit
T2 peptide: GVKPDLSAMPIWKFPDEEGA

[3] = target: T3, F616A peptide (HER2 603-622 with F616A) (human); experiment: SPR Biacore, mAb on chip, peptide analyte, equilibrium analysis
T3 peptide: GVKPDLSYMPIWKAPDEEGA

[4] = target: T4, I613A peptide (HER2 603-622 with I613A) (human); experiment: as above
T4 construct: also called 1613A
T4 peptide: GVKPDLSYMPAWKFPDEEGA

[5] = target: T5, K615A peptide (HER2 603-622 with K615A) (human); experiment: as above
T5 peptide: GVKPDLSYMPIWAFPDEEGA

[6] = target: T6, L608A peptide (HER2 603-622 with L608A) (human); experiment: SPR Biacore, mAb on chip, peptide analyte, 1:1 fit;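 also: binding measured at 25 °C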
T6 peptide: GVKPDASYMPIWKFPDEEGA

[7] = target: T7, A622G peptide (HER2 603-622 with A622G) (human); experiment: SPR Biacore, mAb on chip, peptide analyte, 1:1 fit;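 also: binding measured at 25 °C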
T7 peptide: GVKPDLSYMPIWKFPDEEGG

[8] = target: T8, M611A peptide (HER2 603-622 with M611A) (human); experiment: SPR Biacore, mAb on chip, peptide analyte, 1:1 fit;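 also: binding measured at 25 °C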
T8 peptide: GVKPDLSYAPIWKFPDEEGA

[9] = target: T9, G621A peptide (HER2 603-622 with G621A) (human); experiment: SPR Biacore, mAb on chip, peptide analyte, 1:1 fit;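 also: binding measured at 25 °C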
T9 peptide: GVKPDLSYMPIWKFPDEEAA

[10] = target: T10, G603A peptide (HER2 603-622 with G603A) (human); experiment: SPR Biacore, mAb on chip, peptide analyte, 1:1 fit;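 also: binding measured at 25 °C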
T10 peptide: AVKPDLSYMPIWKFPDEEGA

[11] = target: T11, P606A peptide (HER2 603-622 with P606A) (human); experiment: SPR Biacore, mAb on chip, peptide analyte, 1:1 fit;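 also: binding measured at 25 °C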
T11 peptide: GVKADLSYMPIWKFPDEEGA

[12] = target: T12, E620A peptide (HER2 603-622 with E620A) (human); experiment: SPR Biacore, mAb on chip, peptide analyte, 1:1 fit
T12 peptide: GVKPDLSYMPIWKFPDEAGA

[13] = target: T13, V604A peptide (HER2 603-622 with V604A) (human); experiment: SPR Biacore, mAb on chip, peptide analyte, 1:1 fit
T13 peptide: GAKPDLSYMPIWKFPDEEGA

[14] = target: T14, D618A peptide (HER2 603-622 with D618A) (human); experiment: SPR Biacore, mAb on chip, peptide analyte, 1:1 fit
T14 peptide: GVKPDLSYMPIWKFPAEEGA

[15] = target: T15, S609A peptide (HER2 603-622 with S609A) (human); experiment: SPR Biacore, mAb on chip, peptide analyte, 1:1 fit
T15 peptide: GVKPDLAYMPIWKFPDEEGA

[16] = target: T16, P617A peptide (HER2 603-622 with P617A) (human); experiment: SPR Biacore, mAb on chip, peptide analyte, 1:1 fit
T16 peptide: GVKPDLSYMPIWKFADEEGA

[17] = target: T17, HER2 peptide p603-622 (amino acids 603 to 622 of human HER2) (human); experiment: SPR Biacore, mAb on chip, peptide analyte, 1:1 fit
T17 construct: Synthetic peptide; also called wild-type HER2 peptide
T17 peptide: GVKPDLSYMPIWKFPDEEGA

[18] = target: T18, D607A peptide (HER2 603-622 with D607A) (human); experiment: SPR Biacore, mAb on chip, peptide analyte, 1:1 fit
T18 peptide: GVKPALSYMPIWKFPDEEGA

[19] = target: T1, P612A peptide (HER2 603-622 with P612A); experiment: SPR Biacore, mAb on chip, peptide analyte, 1:1 fit
[20] = target: T19, K605A peptide (HER2 603-622 with K605A) (human); experiment: SPR Biacore, mAb on chip, peptide analyte, 1:1 fit
T19 peptide: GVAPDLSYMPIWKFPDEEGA

[21] = target: T2, Y610A peptide (HER2 603-622 with Y610A); experiment: SPR Biacore, mAb on chip, peptide analyte, 1:1 fit
[22] = target: T20, E619A peptide (HER2 603-622 with E619A) (human); experiment: SPR Biacore, mAb on chip, peptide analyte, 1:1 fit
T20 peptide: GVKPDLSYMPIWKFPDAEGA

B1: H2Mab-250 antibody (antibody, V domains shown)
VH: EVQLVESGGGLVQPGGSLKLSCAASGFTFSNYGMSWVRQTPDRRLELVATINNNGGGTYYPDSVKGRFTISRDNAKNTLYLQMSSLKSEDTAMYYCTSPGLLWDAWGAGTTVTVSS
VL: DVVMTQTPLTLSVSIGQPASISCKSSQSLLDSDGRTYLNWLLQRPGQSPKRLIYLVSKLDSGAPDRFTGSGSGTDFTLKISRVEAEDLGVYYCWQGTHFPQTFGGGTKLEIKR
notes: Mouse monoclonal from a hybridoma (immunogen HER2ec made in LN229 cells); also called antibody of the present invention
- Kd [1]: 9.54 nM
- koff [1]: 0.000609 s⁻¹
- kon [1]: 63800 M⁻¹ s⁻¹
- Kd [2]: 7.9 nM
- koff [2]: 0.000451 s⁻¹
- kon [2]: 57100 M⁻¹ s⁻¹

B2: H2Mab-214 antibody (antibody, V domains shown)
VH: QVTLKESGPGILQPSQTLSLTCSFSGFSLSTSGMGVSWIRQPSGKGLEWLAHIFWDDDKRYNPSLKSRLTISKDTSRNKVFLKITSVDTADTATYYCARRVVATDWYFDVWGAGTTVTVSS
VL: DIVLTQSPASLAVSLGQRATISCRASESVEYYGTTLMQWYQQKPGQPPKLLIYAASKVESGVPARFSGSGSGTDFSLNIHPVEEDDVAMYFCQQSRKVPLTFGAGTKLELKR
notes: as for B1
- Kd [3]: 410000 nM
- Kd [4]: 39300 nM
- Kd [5]: 578000 nM
- Kd [6]: 48.7 nM
- koff [6]: 0.00739 s⁻¹
- kon [6]: 152000 M⁻¹ s⁻¹
- Kd [7]: 15.5 nM
- koff [7]: 0.00567 s⁻¹
- kon [7]: 366000 M⁻¹ s⁻¹
- Kd [8]: 34.1 nM
- koff [8]: 0.00774 s⁻¹
- kon [8]: 227000 M⁻¹ s⁻¹
- Kd [9]: 20.4 nM
- koff [9]: 0.0059 s⁻¹
- kon [9]: 290000 M⁻¹ s⁻¹
- Kd [10]: 16.9 nM
- koff [10]: 0.00564 s⁻¹
- kon [10]: 335000 M⁻¹ s⁻¹
- Kd [11]: 17.6 nM
- koff [11]: 0.00578 s⁻¹
- kon [11]: 329000 M⁻¹ s⁻¹
- Kd [12]: 42 nM
- koff [12]: 0.00762 s⁻¹
- kon [12]: 182000 M⁻¹ s⁻¹
- Kd [13]: 22.7 nM
- koff [13]: 0.00619 s⁻¹
- kon [13]: 273000 M⁻¹ s⁻¹
- Kd [14]: 49.1 nM
- koff [14]: 0.0125 s⁻¹
- kon [14]: 254000 M⁻¹ s⁻¹
- Kd [15]: 33.2 nM
- koff [15]: 0.00659 s⁻¹
- kon [15]: 199000 M⁻¹ s⁻¹
- Kd [16]: 43.9 nM
- koff [16]: 0.00716 s⁻¹
- kon [16]: 163000 M⁻¹ s⁻¹
- Kd [17]: 22.8 nM
- koff [17]: 0.00543 s⁻¹
- kon [17]: 238000 M⁻¹ s⁻¹
- Kd [18]: 17.6 nM
- koff [18]: 0.00588 s⁻¹
- kon [18]: 334000 M⁻¹ s⁻¹
- Kd [19]: 46.8 nM
- koff [19]: 0.0125 s⁻¹
- kon [19]: 267000 M⁻¹ s⁻¹
- Kd [20]: 26.5 nM
- koff [20]: 0.00643 s⁻¹
- kon [20]: 243000 M⁻¹ s⁻¹
- Kd [21]: 26.7 nM
- koff [21]: 0.00603 s⁻¹
- kon [21]: 226000 M⁻¹ s⁻¹
- Kd [22]: 66.2 nM
- koff [22]: 0.0111 s⁻¹
- kon [22]: 168000 M⁻¹ s⁻¹
